“And” between values parts separate entries of the source, which are not always exact repeats. Identical values can stand only once. Like-named read-outs stand apart in the source and are kept apart here. Ends that are not written are not given here.
Columns and labels:
[1] = molecular target: T1, MMP14 (Homo sapiens, UniProt P50281); assay: Internally quenched peptide probe cleavage assay (Example 8); format: biochemical; conditions: 20 μM peptide probe, 20 nM protease, 37° C.
Text: (§1) The study provided herein evaluated the cleavability kinetics (i.e., pM/s and kcat/KM (M^−1 s^−1) of CMs with matriptase (MT-SP1) and matrix metalloprotease (MMP) 2 (MMP2), MMP9, and MMP14. The CMs listed in Table 10 below were presented in an internally quenched peptide probe format, rather than included in an activatable antibody format. In the internally quenched probes, the CM sequence was positioned between a 7-methoxycoumarin-4-acetyl (MCA) fluorophore and a 2,4-dinitrophenyl (DNP) quencher such that cleavage of the CM sequence produced a fluorescence signal. The probes were of the following designs: (MCA)-Gly-Ser-X1-X2-Pro-X3-Gly-Leu-X4-X5-Gly-Ser-Lys (DNP)-D-Arg (SEQ ID NO: 178) where X1 is Arg or is absent, X2 is Ser or is absent, X3 is Met or Trp, X4 is Lys, Arg, or is absent, and X5 is Ser or is absent; (MCA)-Ser-X1-Pro-X2-Gly-Leu-X3-X4-Gly-Ser-Lys (DNP)-D-Arg (SEQ ID NO: 179) where X1 is Ala, X2 is Met, X3 is Lys, and X4 is His; and (MCA)-Gly-Ser-Pro-X1-Gly-Leu-X2-Gly-Gly-Ser-Lys (DNP)-D-Arg (SEQ ID NO: 180) where X1 is Met and X2 is Lys, as indicated in Table 10. The cleavage rates (pM/s) were measured using 20 μM internally quenched peptide probe and 20 nM MT-SP1, MMP2, MMP9, or MMP14. Cleavability kinetics (i.e., pM/s and kcat/KM (M^−1 s^−1)) were measured at 37° C. in 96- or 384-well plate format in the following buffers: 50 mM TRIS-HCl (pH 7.4), 150 mM NaCl, 0.05% Tween 20 for MT-SP1, 50 mM Tris-HCl (pH 7.5), 10 mM CaCl2, 150 mM NaCl, 0.05% (w/v) Brij-35 for MMP2 and MMP9, and 50 mM HEPES (pH 6.8), 10 mM CaCl2), 0.5 mM MgCl2, 0.05% (w/v) Brij-35 for MMP14. Cleavability kinetics were determined on an Infinite 200 PRO (Tecan) multimode plate reader using a fluorescence excitation wavelength of 320 nm and an emission wavelength of 405 nm.

[2] = molecular target: T2, MT-SP1 (Homo sapiens, UniProt Q9Y5Y6); assay: as above; format: biochemical; conditions: 20 μM peptide probe, 20 nM protease, 37° C.
T2 sequence (Q9Y5Y6 615-855 limits assumed): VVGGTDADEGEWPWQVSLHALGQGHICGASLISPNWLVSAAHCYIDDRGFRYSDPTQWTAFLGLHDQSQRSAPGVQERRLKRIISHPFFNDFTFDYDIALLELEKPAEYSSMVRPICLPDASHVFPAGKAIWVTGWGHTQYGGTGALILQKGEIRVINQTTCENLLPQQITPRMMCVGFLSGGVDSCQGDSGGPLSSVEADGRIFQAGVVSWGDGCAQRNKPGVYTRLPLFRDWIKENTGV
Text: as §1

[3] = molecular target: T3, MMP2 (Homo sapiens, UniProt P08253); assay: as above; format: biochemical; conditions: 20 μM peptide probe, 20 nM protease, 37° C.
T3 sequence (P08253 110-660): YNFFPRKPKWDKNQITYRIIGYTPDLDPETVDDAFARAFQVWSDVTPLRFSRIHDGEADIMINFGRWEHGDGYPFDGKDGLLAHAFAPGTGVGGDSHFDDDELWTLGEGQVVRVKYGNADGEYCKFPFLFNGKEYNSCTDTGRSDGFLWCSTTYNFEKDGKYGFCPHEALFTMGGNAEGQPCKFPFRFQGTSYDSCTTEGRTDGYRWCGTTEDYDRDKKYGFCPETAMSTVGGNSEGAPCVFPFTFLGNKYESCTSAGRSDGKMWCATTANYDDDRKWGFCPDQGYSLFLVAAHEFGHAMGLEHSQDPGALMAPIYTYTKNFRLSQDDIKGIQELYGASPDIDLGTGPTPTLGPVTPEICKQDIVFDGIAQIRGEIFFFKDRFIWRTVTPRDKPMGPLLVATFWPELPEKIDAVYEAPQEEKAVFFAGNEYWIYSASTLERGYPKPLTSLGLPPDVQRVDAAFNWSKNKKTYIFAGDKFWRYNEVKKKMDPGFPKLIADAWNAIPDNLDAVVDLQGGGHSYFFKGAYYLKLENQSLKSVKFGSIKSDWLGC
Text: as §1

[4] = molecular target: T4, MMP9 (Homo sapiens, UniProt P14780); assay: as above; format: biochemical; conditions: 20 μM peptide probe, 20 nM protease, 37° C.
T4 sequence (P14780 107-707 limits assumed): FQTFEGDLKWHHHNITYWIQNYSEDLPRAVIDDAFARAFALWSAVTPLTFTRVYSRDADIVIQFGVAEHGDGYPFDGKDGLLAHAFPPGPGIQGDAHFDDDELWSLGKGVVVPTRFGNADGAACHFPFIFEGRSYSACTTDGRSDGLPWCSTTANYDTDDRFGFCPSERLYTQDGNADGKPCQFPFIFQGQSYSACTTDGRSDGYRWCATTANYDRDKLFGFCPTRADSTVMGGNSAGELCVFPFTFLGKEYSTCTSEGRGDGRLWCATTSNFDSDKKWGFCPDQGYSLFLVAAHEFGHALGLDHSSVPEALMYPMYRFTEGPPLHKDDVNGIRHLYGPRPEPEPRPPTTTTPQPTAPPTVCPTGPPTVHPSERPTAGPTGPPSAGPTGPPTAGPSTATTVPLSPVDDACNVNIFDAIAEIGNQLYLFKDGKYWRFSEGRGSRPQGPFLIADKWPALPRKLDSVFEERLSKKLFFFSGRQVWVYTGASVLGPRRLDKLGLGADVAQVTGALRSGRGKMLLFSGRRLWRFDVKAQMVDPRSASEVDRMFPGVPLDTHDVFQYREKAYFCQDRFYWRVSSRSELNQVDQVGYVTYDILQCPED
Text: as §1

[5] = molecular target: T3, MMP2; assay: In vitro cleavability of activatable antibodies, capillary electrophoresis; format: biochemical; parameters: purchased R&D Systems 902-MP; conditions: for Cleavability (%) 4h MMP2: 500 nM activatable antibody, 10 nM protease, 4 hours at 37° C.
[6] = molecular target: T4, MMP9; assay: as above; format: biochemical; parameters: purchased R&D Systems 911-MP; key to Cleavability (%) 4h MMP9: “—” indicates below limit of quantification; conditions: for Cleavability (%) 4h MMP9: 500 nM activatable antibody, 10 nM protease, 4 hours at 37° C.
[7] = molecular target: T1, MMP14; assay: as above; format: biochemical; parameters: key to Cleavability (%) 4h MMP14: “—” indicates below limit of quantification; conditions: for Cleavability (%) 4h MMP14: 500 nM activatable antibody, 10 nM protease, 4 hours at 37° C.; for percent activation for MMP14: Tables 6A-6C, activatable antibody format
[8] = molecular target: T2, MT-SP1; assay: as above; format: biochemical; parameters: purchased R&D Systems 3946-SEB
Experimental: The studies provided herein evaluate the in vitro cleavability of activatable antibodies containing exemplary CMs that include a substrate cleavable by a matrix metalloprotease (MMP) and/or a substrate cleavable by a matriptase (MT-SP1).
Each activatable antibody (500 nM) was incubated with 10 nM of the indicated single protease for 4 hours at 37° C. Human recombinant proteases were purchased from R&D Systems: MT-SP1 (catalog No: 3946-SEB), MMP2 (catalog No: 902-MP), MMP9 (catalog No: 911-MP), and MMP14 (catalog No: 918-MP). […] Protease concentrations were determined by active site titration. Activity assays were performed in the following buffers: 50 mM TRIS-HCl (pH 7.4), 150 mM NaCl, 0.05% Tween 20 for MT-SP1, 50 mM Tris-HCl, 10 mM CaCl2), 150 mM NaCl, 0.05% (w/v) Brij-35, pH 7.5 for MMP2 and MMP9, and 50 mM HEPES (pH 6.8), 10 mM CaCl2), 0.5 mM MgCl2 for MMP14. Following incubation, the presence of cleavage product was determined by capillary electrophoresis for each protease enzyme using a LabChip GXII Touch system (Perkin Elmer) with the HT Protein Express 100 protocol (Perkin Elmer). LabChip GXII Touch HT Chips (Perkin Elmer #760499) were set up using the protocol of the Protein Express Assay Reagent Kit (Perkin Elmer #CLS960008).

[9] = mouse
[10] = tested on: human bone marrow aspirates; assay: In situ stability in human bone marrow aspirates; format: in vitro ADME; conditions: 20 μg/mL, 37° C., 21 or 24 hours; normalized to CM 2001 cleavage
Experimental: Fresh human bone marrow aspirates from healthy donors were purchased from Stemcell Technology Inc. (Catalog No. 70502) and AllCells Inc. and were processed to lyse red blood cells and washed 5 times with buffer or serum-free media. […] An equal volume of AF647-labeled c225 activatable antibodies prepared at 40 μg/mL in serum-free RPMI media were then added to form a mixture and incubated at a final concentration of 20 μg/mL at 37° C. for 21 or 24 hours. Cells were pelleted through centrifugation for 5 min at 300× g. Supernatants were collected from each incubated mixture and transferred into a well of a 96-well PCR plate for assay by capillary electrophoresis. Each supernatant sample was mixed with Pico Sample Buffer (Perkin Elmer) containing 2-beta-mercaptoethanol at four parts sample and one part of Pico Sample Buffer and then heated at 95° C. for 10 minutes. Substrate cleavage was measured by capillary electrophoresis using a LabChip GXII Touch system (Perkin Elmer) with the HT Pico Protein Express 100 protocol (Perkin Elmer). Protein Express Assay LabChips (Perkin Elmer #760499) were set up using the protocol of the Protein Pico Assay Reagent Kit (Perkin Elmer #760498).

[11] = tested on: H292 (human lung cancer-derived cell line) subcutaneous xenograft tumors; assay: In vivo efficacy in mouse H292 xenograft model; parameters: species or system nu/nu mice; conditions: 9 mg/kg intraperitoneally on day 1, H292 xenograft
Experimental: In this study, H292 (human lung cancer-derived cell line) subcutaneous xenograft tumors in female nu/nu mice of 6-8 weeks of age were grown to an average volume of 95-247 mm^3. […] The mice were then randomized into groups of 8 mice each and each group was dosed intraperitoneally on day 1 with 9 mg/kg of the indicated test article.

[12] = molecular target: recombinant EGFR (Homo sapiens, UniProt P00533); assay: Solid-phase binding assay (ELISA) of anti-EGFR activatable antibodies; conditions: compared to activatable antibodies with control CM 2001
[13] = Tables 6A-6C, activatable antibody format

| Substance | Probe Cleavage (pM/s) MMP14 [1] | Probe Cleavage (pM/s) MT-SP1 [2] | Probe Cleavage (pM/s) MMP2 [3] | Probe Cleavage (pM/s) MMP9 [4] | Cleavability (%) 4h MMP2 [5] | Cleavability (%) 4h MMP9 [6] | Cleavability (%) 4h MMP14 [7] | further results |
| --- | --- | --- | --- | --- | --- | --- | --- | --- |
| PMGLKS (also: internally quenched fluorophore/quencher probe, groups not placed) [CM 7018, tested as internally quenched peptide probe] | 153000 pM/s | 14100 pM/s | 119000 pM/s | 133000 pM/s |  |  |  |  |
| RSPWGL [tested as internally quenched peptide probe] | 9580 pM/s | 2390 pM/s | 11700 pM/s | 25500 pM/s |  |  |  |  |
| GPYGLL [CM 7048] |  |  |  |  | 96.1% | 98.3% | 66.3% |  |
| ISSGLLSGRSDNH [CM 2001, reference compound] |  |  |  |  | 50.6% and 44.1% and 52.2% | — | 82.2% and 80.2% and 92.9% | Cleavability (%) 4h MT-SP1 ([8]; 500 nM activatable antibody, 10 nM protease, 4 hours at 37° C.): 30.5% |
| PWGL [CM 7041, also tested as internally quenched peptide probe] |  |  |  |  | 15.8% | 12.3% | — |  |
| GPWGLL [CM 7043] |  |  |  |  | 86.0% | 96.2% | 77.6% | in vivo stability versus control CMs [9]: higher in vivo stability; In Vivo % Activation (nu/nu, day 7) ([9]; ip, 10 mg/kg): 44% |
| APMGLKH [CM 7046] | 114000 pM/s | 3330 pM/s | 81700 pM/s | 115000 pM/s | 95.7% | 45.1% | 95.3% | percent activation for MMP2 [5, 13]: greater than 90%; percent activation for MMP9 [6, 13]: greater than 30%; in situ cleavage in human bone marrow aspirates (FIG. 3) [10]: demonstrated a resistance to cleavage in situ in the bone marrow; percent activation for MMP14 [7]: greater than 90%; in vivo efficacy (mean tumor volume, FIG. 2A) [11]: comparable with the activatable antibody with the control CM 2001; effect of CM on apparent masking efficiency [12]: increasing the apparent masking efficiency; Cleavability (%) 4h MT-SP1 [8]: 5.37%; in vivo stability versus control CMs [9]: higher in vivo stability |
| PMGLK (also: internally quenched fluorophore/quencher probe, groups not placed) [CM 7019, tested as internally quenched peptide probe] | 5950 pM/s | 46.1 pM/s | 4690 pM/s | 6080 pM/s |  |  |  |  |
| PWGLRS [tested as internally quenched peptide probe] | 4380 pM/s | 1230 pM/s | 3800 pM/s | 3830 pM/s |  |  |  |  |
| PYGL [CM 7047, also tested as internally quenched peptide probe] |  |  |  |  | 27.5% | 19.2% | — |  |
| PWGLS [CM 7045] |  |  |  |  | 40.2% | 74.5% | 15.6% | percent activation for MMP14 [7]: greater than 10%; effect of CM on apparent masking efficiency [12]: increasing the apparent masking efficiency |

Reference: patent US20260042849A1, “PROTEASE-CLEAVABLE MOIETIES AND METHODS OF USE THEREOF” (CytomX Therapeutics, Inc., priority 2022, published 2026)
